Test results: paper doi:10.1101/2022.07.16.500195 (bioRxiv, 2022)
Read-outs that look alike come from different tables or passages of the source.

B1: PulMCTD (C-terminal domain of PulM, residues 79-161) (domain or fragment, Klebsiella oxytoca)
chain: SPEEPSTVIMREAARHGLTIVRLQPQGSRLSLTVQPADFQALMAWLDALGQAGMTTATLAVTAVAQQPGWVTVNTLVLERSDEK
B2: PulLCTD (C-terminal domain of PulL, residues 312-398) (domain or fragment, Klebsiella oxytoca)
chain: SNAGARPALISRLGALQQIIDDTPGIRLRTLSFDAARNALQLEISAVSSQALEQFSQRARARFRVQTGEMKPRADGIEGRLTLEGNDA

Assays:
[1] = target: B2; experiment: native MS
[2] = target: the molecule itself
[3] = target: B1; experiment: NMR titration
AUC + other: NMR = target: the molecule itself; experiment: AUC + other: NMR

Binder	binding result [1]	stoichiometry N [2]	stoichiometry N [3] [PulLCTD per PulMCTD]	stoichiometry N (AUC + other: NMR)
B1	binds	2		
B2			1	2
